Reference: publication doi:10.1101/505453

Biological target: Oryza sativa hyperosmolality-gated protein OsOSCA1.2 (Oryza sativa (rice))
Assay: SEC-MALS

stoichiometry N: 2
Substance: Oryza sativa hyperosmolality-gated protein OsOSCA1.2 (natural protein)
